Experimental data as given in patent US20100216715A1 (Novo Nordisk, published 2010).
Where a chain is given by its changes, count along the chain named. Names may count otherwise. One block for each binder: values may come before it.

Target: T1, human beta-Klotho (human, UniProt Q86Z14 1-1044)
T1 sequence (looked up): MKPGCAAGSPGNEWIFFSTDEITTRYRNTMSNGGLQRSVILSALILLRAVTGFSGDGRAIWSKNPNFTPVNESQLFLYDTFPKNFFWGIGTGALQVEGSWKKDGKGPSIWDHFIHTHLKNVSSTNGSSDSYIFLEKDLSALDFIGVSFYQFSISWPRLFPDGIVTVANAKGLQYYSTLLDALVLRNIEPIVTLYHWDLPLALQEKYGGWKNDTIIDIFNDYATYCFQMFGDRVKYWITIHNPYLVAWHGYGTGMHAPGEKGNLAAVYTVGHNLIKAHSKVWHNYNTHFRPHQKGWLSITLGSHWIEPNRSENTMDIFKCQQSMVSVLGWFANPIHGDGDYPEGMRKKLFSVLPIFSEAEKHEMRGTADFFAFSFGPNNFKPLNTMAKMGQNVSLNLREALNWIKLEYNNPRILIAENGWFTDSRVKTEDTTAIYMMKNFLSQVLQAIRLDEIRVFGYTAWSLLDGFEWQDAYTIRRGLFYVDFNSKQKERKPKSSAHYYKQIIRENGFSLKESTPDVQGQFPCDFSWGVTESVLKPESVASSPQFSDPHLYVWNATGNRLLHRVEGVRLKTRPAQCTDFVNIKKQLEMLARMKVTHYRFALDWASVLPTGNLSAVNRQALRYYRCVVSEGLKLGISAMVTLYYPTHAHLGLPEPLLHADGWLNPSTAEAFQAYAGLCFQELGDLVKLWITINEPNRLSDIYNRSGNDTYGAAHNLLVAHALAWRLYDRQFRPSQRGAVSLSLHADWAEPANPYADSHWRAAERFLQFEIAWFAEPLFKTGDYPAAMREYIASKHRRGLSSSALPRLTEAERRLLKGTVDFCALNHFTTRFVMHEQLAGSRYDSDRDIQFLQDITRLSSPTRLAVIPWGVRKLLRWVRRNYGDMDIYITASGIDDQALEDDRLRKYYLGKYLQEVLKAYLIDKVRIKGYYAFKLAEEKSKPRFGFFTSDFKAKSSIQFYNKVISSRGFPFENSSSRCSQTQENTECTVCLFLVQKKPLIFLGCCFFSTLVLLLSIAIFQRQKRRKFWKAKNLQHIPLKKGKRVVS
Assay: cell-based or functional assay

pERK-HEK293-Beta-klotho without HSA [EC50 (nM)] Median Value: 1 nM
B1: (Q28R, K56R, K59R, K69R, D102T, N121Q, K122R, L166F, S167G, M168L, G170T) Gly-FGF21 (ligand)
chain: GHPIPDSSPLLQFGGQVRQRYLYTDDAQRTEAHLEIREDGTVGGAADQSPESLLQLRALRPGVIQILGVRTSRFLCQRPDGALYGSLHFDPEACSFRELLLETGYNVYQSEAHGLPLHLPGQRSPHRDPAPRGPARFLPLPGLPPALPEPPGILAPQPPDVGSSDPFGLVTPSQGRSPSYAS

pERK-HEK293-Beta-klotho without HSA [EC50 (nM)] Median Value: 15 nM
B3: (Q28R, K56R, K59R, K69R, D102T, N121Q, K122R, D159E, M168L, G174A, Y179F) Gly-FGF21 (ligand)
chain: B1 chain with D160E, F167L, G168S, T171G, G175A, Y180F

pERK-HEK293-Beta-klotho without HSA [EC50 (nM)] Median Value: 1.6 nM
B4: Met-FGF21 (ligand)
chain: MHPIPDSSPLLQFGGQVRQRYLYTDDAQQTEAHLEIREDGTVGGAADQSPESLLQLKALKPGVIQILGVKTSRFLCQRPDGALYGSLHFDPEACSFRELLLEDGYNVYQSEAHGLPLHLPGNKSPHRDPAPRGPARFLPLPGLPPALPEPPGILAPQPPDVGSSDPLSMVGPSQGRSPSYAS

pERK-HEK293-Beta-klotho without HSA [EC50 (nM)] Median Value: 1.2 nM
B6: (N121D) Met-FGF21 (ligand)
chain: B4 chain with N122D

pERK-HEK293-Beta-klotho without HSA [EC50 (nM)] Median Value: 1 nM
B13: (N121Q) Met-FGF21 (ligand)
chain: B4 chain with N122Q

pERK-HEK293-Beta-klotho without HSA [EC50 (nM)] Median Value: 3.3 nM
B14: (Q15F) Met-FGF21 (ligand)
chain: B4 chain with Q16F

pERK-HEK293-Beta-klotho without HSA [EC50 (nM)] Median Value: 2.5 nM
B16: (S71C) Gly-FGF21 (ligand)
chain: B4 chain with M1G, S72C

The next lines start with the binder.

B2: [28R, K56R, 59R, 69R, 102T, 121Q, 122R, 168L, 179F, 180E, 181R] Gly-FGF21 derivative of Example 47 (ligand)
chain: B1 chain with F167L, G168S, T171G, Y180F, A181E, S182R
modifications: N-alpha-1-[2-(2-{2-[2-(2-{2-[(S)-4-carboxy-4-(17-carboxy-heptadecanoylamino)-butyrylamino]-ethoxy}-ethoxy)-acetylamino]-ethoxy}-ethoxy)-acetyl] on the N-terminal alpha amino group
pERK-HEK293-Beta-klotho without HSA [EC50 (nM)] Median Value: 10 nM

B5: D102T Met-FGF21 (ligand)
chain: B4 chain with D103T
pERK-HEK293-Beta-klotho without HSA [EC50 (nM)] Median Value: 1.7 nM

B7: (K56R, 59R, 69R, 122R, 168L) Gly-FGF21 derivative of Example 48 (ligand)
chain: B1 chain with R29Q, T103D, Q122N, F167L, G168S, T171G
modifications: N-alpha-1-[2-(2-{2-[2-(2-{2-[(S)-4-carboxy-4-(17-carboxy-heptadecanoylamino)-butyrylamino]-ethoxy}-ethoxy)-acetylamino]-ethoxy}-ethoxy)-acetyl] on the N-terminal alpha amino group
pERK-HEK293-Beta-klotho without HSA [EC50 (nM)] Median Value: 4.6 nM

B8: K122C Met-FGF21 derivative of Example 4 (ligand)
chain: B4 chain with K123C
modifications: S-122-[1-(2-{2-[2-(2-{2-[2-(2-{2-[(S)-4-carboxy-4-(17-carboxy-heptadecanoylamino)-butyrylamino]-ethoxy}-ethoxy)-acetylamino]-ethoxy}-ethoxy)-acetylamino]-ethylcarbamoyl}-ethyl)-2,5-dioxo-pyrrolidin-3-yl] on the thiol of Cys122
pERK-HEK293-Beta-klotho without HSA [EC50 (nM)] Median Value: 0.9 nM

B9: (K56R, K59R, K69R, K122R) Gly-FGF21 (ligand)
chain: B4 chain with M1G, K57R, K60R, K70R, K123R
pERK-HEK293-Beta-klotho without HSA [EC50 (nM)] Median Value: 7.4 nM

B10: (D102N) Met-FGF21 (ligand)
chain: B4 chain with D103N
pERK-HEK293-Beta-klotho without HSA [EC50 (nM)] Median Value: 0.7 nM

B11: (K56R, K59R, K69R, K122R) Gly-FGF21 derivative of Example 46 (ligand)
chain: B4 chain with M1G, K57R, K60R, K70R, K123R
modifications: N-alpha-1-[2-(2-{2-[2-(2-{2-[(S)-4-carboxy-4-(17-carboxy-heptadecanoylamino)-butyrylamino]-ethoxy}-ethoxy)-acetylamino]-ethoxy}-ethoxy)-acetyl] on the N-terminal alpha amino group
pERK-HEK293-Beta-klotho without HSA [EC50 (nM)] Median Value: 3.9 nM

B12: (K56R, K59R, K69R, K122R) Gly-FGF21 derivative of Example 54 (ligand)
chain: B4 chain with M1G, K57R, K60R, K70R, K123R
modifications: N-alpha1-[4-(16-1H-tetrazol-5-yl-hexadecanoylsulfamoyl)-butyryl] on the N-terminal alpha amino group
pERK-HEK293-Beta-klotho without HSA [EC50 (nM)] Median Value: 4.2 nM

B15: (K56R, K59R, K69R, K122R) Gly-FGF21 derivative of Example 53 (ligand)
chain: B4 chain with M1G, K57R, K60R, K70R, K123R
modifications: N-alpha-1-(2-{2-[2-(16-1H-tetrazol-5-yl-hexadecanoylamino)-ethoxy]-ethoxy}-acetyl) on the N-terminal alpha amino group
pERK-HEK293-Beta-klotho without HSA [EC50 (nM)] Median Value: 6.4 nM
